{"source": "patent US20250361529", "target": "T1, UnCas12f1 (Un1Cas12f1) (UniProt A0A482D308)", "T1 sequence": "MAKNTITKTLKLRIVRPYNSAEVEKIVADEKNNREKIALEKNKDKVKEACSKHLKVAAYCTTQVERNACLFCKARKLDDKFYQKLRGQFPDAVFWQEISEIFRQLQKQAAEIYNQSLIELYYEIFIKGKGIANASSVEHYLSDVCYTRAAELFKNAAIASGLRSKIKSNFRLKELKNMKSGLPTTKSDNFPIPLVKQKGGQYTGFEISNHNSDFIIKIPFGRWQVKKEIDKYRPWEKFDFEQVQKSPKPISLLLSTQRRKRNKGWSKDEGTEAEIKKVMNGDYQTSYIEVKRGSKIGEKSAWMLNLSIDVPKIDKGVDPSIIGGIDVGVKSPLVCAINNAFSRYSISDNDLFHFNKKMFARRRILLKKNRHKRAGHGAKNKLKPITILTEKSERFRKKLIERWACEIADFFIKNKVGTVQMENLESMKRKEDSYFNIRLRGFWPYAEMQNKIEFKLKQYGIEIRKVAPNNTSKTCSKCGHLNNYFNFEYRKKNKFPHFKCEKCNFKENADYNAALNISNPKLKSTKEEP", "assay": "cell_activity"}
{"sequence": "ACCGCUUCACCAAAAGCUGUCCCUUAGGGGAUUAGAACUUGAGUGAAGGUGGGCUGCUUGCAUCAGCCUAAUGUCGAGAAGUGCUUUCUUCGGAAAGUAACCCUCGAAACAAAGAAAGGAAUGCAACNNNNNNNNNNNNNNNNNNNNUUUUAUUUUUUCUCUCCUAGACCAUUUCCCA / TTTGCTCTCCTAGACCATTTCCCA / TGGGAAATGGTCTAGGAGAGCAAA [ge4.0-R52 sgRNA ; DMD R52 target]", "values": [{"measurement": "activity", "setting": "PAM TTTR (TTTG), HEK293, AC16 36.47", "result": 46.1, "unit": "% indel"}]}
{"sequence": "ACCGCUUCACCAAAAGCUGUCCCUUAGGGGAUUAGAACUUGAGUGAAGGUGGGCUGCUUGCAUCAGCCUAAUGUCGAGAAGUGCUUUCUUCGGAAAGUAACCCUCGAAACAAAGAAAGGAAUGCAACNNNNNNNNNNNNNNNNNNNNUUUUAUUUUUUCUCAUUCUCAUGCCUGGACA / TTTGCTCATTCTCATGCCTGGACA / TGTCCAGGCATGAGAATGAGCAAA [ge4.0-F142 sgRNA ; DMD F142 target]", "values": [{"measurement": "activity", "setting": "PAM TTTR (TTTG), HEK293, AC16 48.08", "result": 54, "unit": "% indel"}]}
{"sequence": "ACCGCUUCACUUAGAGUGAAGGUGGGCUGCUUGCAUCAGCCUAAUGUCGAGAAGUGCUUUCUUCGGAAAGUAACCCUCGAAACAAAGAAAGGAAUGCAACNNNNNNNNNNNNNNNNNNNNUUUUAUUUUUUUAGCUAGAUAAACUUGGGCU / TTTATAGCTAGATAAACTTGGGCT / AGCCCAAGTTTATCTAGCTATAAA [ge4.1-R16 sgRNA ; DMD R16 target]", "values": [{"measurement": "activity", "setting": "PAM TTTR (TTTA), HEK293, AC16 29.76", "result": 58.8, "unit": "% indel"}]}
{"sequence": "ACCGCUUCACUUAGAGUGAAGGUGGGCUGCUUGCAUCAGCCUAAUGUCGAGAAGUGCUUUCUUCGGAAAGUAACCCUCGAAACAAAGAAAGGAAUGCAACNNNNNNNNNNNNNNNNNNNNUUUUAUUUUUUCUCAUUCUCAUGCCUGGACA / TTTGCTCATTCTCATGCCTGGACA / TGTCCAGGCATGAGAATGAGCAAA [ge4.1-F142 sgRNA ; DMD F142 target]", "values": [{"measurement": "activity", "setting": "PAM TTTR (TTTG), HEK293, AC16 19.18", "result": 50, "unit": "% indel"}]}
{"sequence": "ACCGCUUCACUUAGAGUGAAGGUGGGCUGCUUGCAUCAGCCUAAUGUCGAGAAGUGCUUUCUUCGGAAAGUAACCCUCGAAACAAAGAAAGGAAUGCAACNNNNNNNNNNNNNNNNNNNNUUUUAUUUUUUACUGACUACUCCCCAAGUAU / TTTGACTGACTACTCCCCAAGTAT / ATACTTGGGGAGTAGTCAGTCAAA [ge4.1-F110 sgRNA ; DMD F110 target]", "values": [{"measurement": "activity", "setting": "ge4.1, PAM TTTG, HEK293, 5 days, no editing detected", "result": 0, "unit": "% indel"}]}
